This note sets out measurements from patent US20140234312A1 (Genentech, published 2014).

The target of assay [1] is T1, hNrp2 (a1a2b1b2)-Fc fusion protein (human, UniProt O60462 23-595, limits assumed).
T1 construct: domain: a1a2b1b2; Expressed in CHO cells; The SPR text says only 'human Nrp2 (a1a2b1b2)', so it is not certain that the Fc fusion was the analyte there; also called hNrp2 ECD; human Nrp2 ECD; not shown: Fc part of the fusion
T1 sequence (looked up): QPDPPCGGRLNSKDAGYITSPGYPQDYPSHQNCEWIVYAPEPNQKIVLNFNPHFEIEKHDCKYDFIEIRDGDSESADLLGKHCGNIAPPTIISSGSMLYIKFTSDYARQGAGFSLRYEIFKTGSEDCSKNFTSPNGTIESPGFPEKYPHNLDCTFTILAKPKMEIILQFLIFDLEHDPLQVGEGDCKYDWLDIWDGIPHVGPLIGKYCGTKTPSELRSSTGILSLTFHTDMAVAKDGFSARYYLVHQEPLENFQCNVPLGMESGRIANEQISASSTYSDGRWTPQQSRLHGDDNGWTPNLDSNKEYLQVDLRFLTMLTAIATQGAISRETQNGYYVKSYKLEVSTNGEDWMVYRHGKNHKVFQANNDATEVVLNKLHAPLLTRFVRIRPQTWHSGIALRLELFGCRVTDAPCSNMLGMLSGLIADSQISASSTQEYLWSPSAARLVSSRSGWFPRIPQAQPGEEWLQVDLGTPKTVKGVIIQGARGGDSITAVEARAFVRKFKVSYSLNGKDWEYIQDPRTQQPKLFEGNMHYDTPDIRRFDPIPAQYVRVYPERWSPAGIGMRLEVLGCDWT
Kind of assay: blocking ELISA: plate coated with human Nrp2 ECD (5 ug/ml), antibody pre-incubated, then biotinylated human VEGFC (1 nM), streptavidin-HRP; blocked ligand VEGFC. Here is the method: FIG. 1. Characterization of Anti-Nrp2^B mAb. (A) Schematic representation of Sema and VEGF binding regions on Nrp2 relative to Anti-Nrp2^B epitope regions. […] (C) Blocking of VEGFC binding to Nrp2 by Anti-Nrp2^B. Increasing amounts of mAb was pre-incubated with plates coated with human Nrp2 ECD (5 μg/ml) for 1-2 hrs, followed by adding pre-titrated biotinylated human VEGFC (1 nM) for 15 min. The percentage of bound VEGFC was detected by streptavidin-HRP conjugates. (D) Blocking of VEGF₁₆₅ binding to Nrp2 by Anti-Nrp2^B. (E) Blocking of Sema3F binding to LECs. LEC were incubated with conditioned media containing Sema3F fused to alkaline phosphatase (AP) (REF), in the presence or absence of Anti-Nrp2^B. AP activity derived form bound Sema3F-AP was detected colorimetrically with same development times. […] Nrp2 ECD was used as a positive control for blocking binding (right panel). Scale bar
(§1) To evaluate blocking Nrp2 from binding VEGF, three-fold serial dilutions of anti-Nrp2^B IgGs were first incubated with 96-well Maxisorp plate coated NRP2-Fc (5 μg/ml) in PBST buffer for 2 hr, following by adding biotinylated VEGF₁₆₅ or VEGFC (full length) for 15 minutes. The amount of biotinylated VEGF binding to Nrp2 was detected by streptavidin-HRP conjugates.
In general terms: In an ELISA, binding on a coated surface is turned into a signal by an enzyme label.

The target in another assay is T2, A1-A2 domains of hNrp2 (human, UniProt O60462 23-270, limits assumed).
T2 construct: domain: A1-A2; also called CUB (a1-a2) domains of human Nrp2
T2 sequence (looked up): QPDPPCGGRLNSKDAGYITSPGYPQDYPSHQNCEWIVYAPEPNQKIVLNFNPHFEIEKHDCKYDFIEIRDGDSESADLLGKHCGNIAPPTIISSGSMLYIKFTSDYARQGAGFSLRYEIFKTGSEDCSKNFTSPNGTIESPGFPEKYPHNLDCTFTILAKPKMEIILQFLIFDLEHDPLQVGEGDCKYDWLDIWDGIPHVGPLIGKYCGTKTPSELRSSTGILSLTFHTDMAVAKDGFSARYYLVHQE
Kind of assay: ELISA on antigen-coated plate, Anti-Nrp2^B IgG titrated, anti-human HRP detection, OD450. Here is the method:
(§2) For ELISA-based binding specificity tests, three-fold serial dilutions of Anti-Nrp2^B IgGs (0.002 nM to 500 nM) in PBST buffer (PBT buffer with 0.5% (w/v) BSA) were incubated with 1 μg/ml antigen-coated 96-well Maxisorp plates for at least 1 hr, and the plates were washed with PBT buffer. Bound antibodies were detected with anti-human antibody HRP conjugates diluted 1:2500 in PBST buffer, developed with TMB substrate for approximately 5 minutes, quenched with 1M H₃PO₄, and read spectrophotometrically at 450 nm.

Assay [2] has as its target T1, hNrp2 (a1a2b1b2)-Fc fusion protein. The description is as above. Here is the method: as §2
The target of a further assay is T3, hNrp2 (b1b2) (human, UniProt O60462 275-595, limits assumed).
T3 construct: domain: b1b2; Expressed in insect cells; also called B1-B2 domains of hNrp2; b1-b2 domains of human Nrp2
T3 sequence (looked up): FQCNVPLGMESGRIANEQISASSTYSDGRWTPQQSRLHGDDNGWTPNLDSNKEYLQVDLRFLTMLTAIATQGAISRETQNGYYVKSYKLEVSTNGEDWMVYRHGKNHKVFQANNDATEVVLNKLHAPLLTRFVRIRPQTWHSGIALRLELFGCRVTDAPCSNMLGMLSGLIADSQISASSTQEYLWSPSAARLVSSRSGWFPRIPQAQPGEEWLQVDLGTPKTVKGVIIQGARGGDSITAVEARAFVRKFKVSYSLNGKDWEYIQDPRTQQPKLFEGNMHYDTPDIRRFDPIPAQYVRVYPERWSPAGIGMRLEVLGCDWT
The assay is described as above. The method, then: as §2

The target of another assay is T4, hNrp1 ECD (human, UniProt O14786 22-856).
T4 construct: extracellular domain
T4 sequence (looked up): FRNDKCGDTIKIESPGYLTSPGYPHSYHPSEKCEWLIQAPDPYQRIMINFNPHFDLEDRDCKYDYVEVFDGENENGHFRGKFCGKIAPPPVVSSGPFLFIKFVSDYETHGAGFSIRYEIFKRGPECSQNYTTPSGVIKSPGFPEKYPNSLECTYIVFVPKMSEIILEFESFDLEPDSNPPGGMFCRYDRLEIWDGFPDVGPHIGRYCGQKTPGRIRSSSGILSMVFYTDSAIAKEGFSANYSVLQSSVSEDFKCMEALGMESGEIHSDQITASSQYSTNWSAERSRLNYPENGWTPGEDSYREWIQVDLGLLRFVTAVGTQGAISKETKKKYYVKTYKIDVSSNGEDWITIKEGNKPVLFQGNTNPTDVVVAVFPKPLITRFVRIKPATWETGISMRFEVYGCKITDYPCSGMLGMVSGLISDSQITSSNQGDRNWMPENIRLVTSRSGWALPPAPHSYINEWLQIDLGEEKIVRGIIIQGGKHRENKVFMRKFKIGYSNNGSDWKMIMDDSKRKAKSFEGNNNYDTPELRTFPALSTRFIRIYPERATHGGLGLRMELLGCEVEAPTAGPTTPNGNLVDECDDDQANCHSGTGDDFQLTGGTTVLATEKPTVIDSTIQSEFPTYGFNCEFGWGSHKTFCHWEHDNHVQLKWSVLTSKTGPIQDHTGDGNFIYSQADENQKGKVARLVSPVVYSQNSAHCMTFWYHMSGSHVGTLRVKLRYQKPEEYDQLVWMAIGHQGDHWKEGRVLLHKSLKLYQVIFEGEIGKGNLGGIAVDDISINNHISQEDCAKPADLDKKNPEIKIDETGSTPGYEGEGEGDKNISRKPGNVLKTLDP
Described as above. The method, then:
as §2

Assay [3] addresses T1, hNrp2 (a1a2b1b2)-Fc fusion protein. In words: SPR (BIAcore-3000), human IgG1 captured on anti-human IgG CM5 chip, human Nrp2 (a1a2b1b2) injected 0.5-250 nM, 25 C, 1:1 Langmuir; human Nrp2. Here is the method: (§3) To determine binding affinities of anti-Nrp2^B IgG1 antibodies, surface plasmon resonance (SRP) measurement with a BIAcore™-3000 instrument was used. First of all, anti-Nrp2^B human IgGs were captured by CM5 biosensor chips coated rabbit anti-human IgG to achieve approximately 200 response units (RU). For kinetics measurements, two-fold serial dilutions of mouse or human Nrp2 (a1a2b1b2) (0.5 nM to 250 nM) were injected separately in PBT buffer (PBS with 0.05% (v/v) Tween 20) at 25° C. with a flow rate of 30 μl/min. Association rates (kₒₙ) and dissociation rates (koff) were calculated using a simple one-to-one Langmuir binding model (BIAcore Evaluation Software version 3.2). The equilibrium dissociation constant (KD) was calculated as the ratio koff/kₒₙ.
Background: In SPR one partner is held on a chip, and binding of the other changes the refractive index at the surface.

The target of a further assay is T5, mNrp2 (a1a2b1b2)-His (mouse, UniProt O35375 23-595, limits assumed).
T5 construct: domain: a1a2b1b2; Expressed in CHO cells; also called mouse Nrp2 (a1a2b1b2); murine Nrp2; not shown: His tag
T5 sequence (looked up): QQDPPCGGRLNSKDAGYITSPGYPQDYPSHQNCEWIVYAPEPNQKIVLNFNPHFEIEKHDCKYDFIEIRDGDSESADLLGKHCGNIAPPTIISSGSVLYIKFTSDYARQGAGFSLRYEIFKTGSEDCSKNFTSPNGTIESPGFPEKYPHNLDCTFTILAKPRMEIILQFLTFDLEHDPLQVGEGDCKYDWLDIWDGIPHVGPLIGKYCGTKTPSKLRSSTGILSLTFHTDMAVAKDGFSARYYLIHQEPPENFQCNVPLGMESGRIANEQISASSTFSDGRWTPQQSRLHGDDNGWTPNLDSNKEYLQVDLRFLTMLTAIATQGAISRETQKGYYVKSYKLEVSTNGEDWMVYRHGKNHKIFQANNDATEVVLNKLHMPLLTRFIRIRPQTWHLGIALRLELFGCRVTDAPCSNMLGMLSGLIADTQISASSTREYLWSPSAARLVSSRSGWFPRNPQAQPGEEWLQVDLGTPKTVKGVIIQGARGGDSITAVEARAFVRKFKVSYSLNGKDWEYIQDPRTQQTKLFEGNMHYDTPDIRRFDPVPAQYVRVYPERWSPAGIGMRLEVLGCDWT
Kind of assay: SPR (BIAcore-3000), human IgG1 captured on anti-human IgG CM5 chip, mouse Nrp2 (a1a2b1b2) injected 0.5-250 nM, 25 C, 1:1 Langmuir; murine Nrp2. Here is the method:
as §3

Assay [4] concerns the target T1, hNrp2 (a1a2b1b2)-Fc fusion protein. In words: competition ELISA: antibody titrated on plate-coated NRP2-Fc (5 ug/ml), competitor biotinylated VEGF165, streptavidin-HRP; blocking of VEGF165 binding. The method, then:
as §1

B1: anti-Nrp2^B antibody YW68.4.2.36 (antibody, V domains shown)
VH: EVQLVESGGGLVQPGGSLRLSCAASGFTITSSGIHWVRQAPGKGLEWVARITPYDGSTDYADSVKGRFTISADTSKNTAYLQMNSLRAEDTAVYYCARYRGRLLFDYWGQGTLVTVSS
VL: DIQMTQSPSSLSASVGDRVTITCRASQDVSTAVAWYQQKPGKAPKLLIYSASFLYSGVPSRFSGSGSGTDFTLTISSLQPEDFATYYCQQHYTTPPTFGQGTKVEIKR
notes: Phage-derived human synthetic antibody; Human IgG1 was used in SPR and ELISA; also called Anti-Nrp2^B mAb; anti-Nrp2^B IgG1
Consider B1, for which, in assay [1], the “IC50 (read off the curve)” value is ~0.1 nM. The binding result with A1-A2 domains of hNrp2 and with hNrp1 ECD was “no binding (tested: 500 nM)” throughout. The “EC50 (read off the curve)” value in assay [2] was ~0.2 nM; with hNrp2 (b1b2), ~0.3 nM. Further, the Kd in assay [3] was found to be 5.3 nM; with mNrp2 (a1a2b1b2)-His, 4.9 nM. The half-inhibitory concentration (IC50) in assay [4] was 0.1 nM.

In general, EC50 (read off the curve) refers to the concentration giving half of the maximal effect. Low values mean a more potent agent, high ones a less potent agent. The term Kd denotes the equilibrium constant for the complex coming apart. Lower therefore signals a tighter complex. As a reminder, the IC50 is the concentration needed to halve the response being measured.
